Measured values: patent US20260015418A1 (ABL BIO, published 2026)

Key:
[1] = target: T1, human ROR1 protein (ROR1-His; Sino Biological, Catalog #13968-H08H) (human, UniProt Q01973 30-406); assay: ELISA, plate coated with ROR1-His (1 ug/ml), bound antibody detected with HRP-conjugated anti-Fab polyclonal antibody, OD at 450 nm
T1 construct: extracellular domain; Bought protein; also called human recombinant ROR1 protein
Method: (§1) The binding affinity of the anti-ROR1 antibody-antigen was evaluated using an ELISA-based solution binding assay. Specifically, 96-well microtiter plates (Nunc-Immuno Plates, NUNC) were coated with ROR1 protein (ROR1-His; sino biological, Catalog #13968-H08H) at a concentration of 1 μg/ml in PBS solution at 4° C. for 16 hours, and non-specific binding sites were blocked with 1% (v/v) BSA (bovine serum albumin) for 2 hours.
(§2) Subsequently, on the 96-well microtiter plates, anti-ROR1 antibodies at concentrations stated in FIGS. 1a to 1c were added to the microtiter plates, and their binding capabilities were analyzed by ELISA as follows. Specifically, after incubating at 37° C. for 2 hours, the plates were washed five times with PBS containing 0.05% (v/v) Tween 20, then the HRP-conjugated Fab polyclonal antibody reagent (Pierce, Catalog #31414) was diluted at a 1:30,000 ratio and added to the washed microtiter plates, then reacted for 1 hour at 37° C., then detected the bound anti-ROR1 antibodies. After reaction, the color was developed using TMB (tetramethylbenzidine, Sigma, T0440). The enzymatic reaction was stopped with 0.5 mol/L sulfuric acid, and the absorbance was read at 450 nm and 650 nm using a microplate reader (Molecular Devices).

[2] = target: T2, human B7-H3 on CHO-huROR1-huB7-H3 cells (human, UniProt Q5ZPR3 29-534); assay: flow cytometry on CHO-huROR1-huB7-H3 cells, FITC anti-human IgG, MFI over secondary antibody only
T2 construct: whole, on cells; also called cell surface B7-H3
T2 sequence (looked up): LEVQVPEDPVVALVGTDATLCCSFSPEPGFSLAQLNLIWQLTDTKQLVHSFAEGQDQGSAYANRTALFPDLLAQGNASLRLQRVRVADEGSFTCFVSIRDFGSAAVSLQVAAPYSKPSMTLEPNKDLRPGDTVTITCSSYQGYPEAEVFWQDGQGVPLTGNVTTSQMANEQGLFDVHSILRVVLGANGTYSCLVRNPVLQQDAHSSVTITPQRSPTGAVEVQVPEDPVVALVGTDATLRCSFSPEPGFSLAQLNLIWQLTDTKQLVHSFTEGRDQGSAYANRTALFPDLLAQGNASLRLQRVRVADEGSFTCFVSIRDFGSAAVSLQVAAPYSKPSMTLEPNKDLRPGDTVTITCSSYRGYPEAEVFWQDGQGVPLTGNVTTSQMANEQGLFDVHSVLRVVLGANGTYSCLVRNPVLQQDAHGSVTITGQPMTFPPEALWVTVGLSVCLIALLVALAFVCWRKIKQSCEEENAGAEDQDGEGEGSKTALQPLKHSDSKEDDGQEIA
Text: To evaluate the cell-binding ability of the anti-ROR1/B7-H3 bispecific antibody, cells expressing both ROR1 and B7-H3 were used to compare the cell-binding ability of the bispecific antibody with that of the monospecific antibodies.
As a cell line for the comparison of cell-binding ability, CHO-huROR1-huB7-H3 cell line (obtained by transfecting the ROR1-CHO recombinant cell line (BPS Bioscience) with the human B7-H3 gene (Origene) and selecting for the desired gene-inserted single cells using G418), which stably transfected the human ROR1 and human B7-H3 gene to artificially overexpress both human ROR1 and human B7-H3 proteins were used, and analysis was performed using a flow cytometer (LSRFortessa X-20, BD Biosciences). Specifically, after dissociating and washing the overexpressing cell line with PBS, the cell number was counted, and the cells were seeded at a density of 2×10⁵ cells per well into a V-bottom 96-well plate (96 Well Plate-RV, Bioneer, 910D09). Antibodies diluted 4-fold starting from 100 nM in 1% BSA solution were added at 100 μL per well to the centrifuged cells and incubated at 4° C. for 1 hour. […] After the reaction, the cells were washed twice with the same buffer, resuspended in 100 μL of PBS, and analyzed using a FACS instrument. A total of 10,000 cells were detected per measurement, and the data was analyzed using FlowJo software. […]

[3] = target: T1, human ROR1 protein (ROR1-His; Sino …); assay: ELISA, plate coated with ROR1-His (1 ug/ml), bound antibody detected with HRP-conjugated anti-Fab polyclonal antibody, OD at 450 nm; lower graph and table
Method: as §1, §2

[4] = target: T1, human ROR1 protein (ROR1-His; Sino …); assay: ELISA, plate coated with ROR1-His (1 ug/ml), bound antibody detected with HRP-conjugated anti-Fab polyclonal antibody, OD at 450 nm; upper graph and table
Method: as §1, §2

[5] = target: T1, human ROR1 protein (ROR1-His; Sino …); assay: ELISA, plate coated with ROR1-His (1 ug/ml), bound antibody detected with HRP-conjugated anti-Fab polyclonal antibody, OD at 450 nm; lower graph and table; remark: listed apart in the source
Method: as §1, §2

[6] = target: T1, human ROR1 protein (ROR1-His; Sino …); assay: ELISA, plate coated with ROR1-His (1 ug/ml), bound antibody detected with HRP-conjugated anti-Fab polyclonal antibody, OD at 450 nm; upper graph and table; remark: listed apart in the source
Method: as §1, §2

[7] = target: T1, human ROR1 protein (ROR1-His; Sino …); assay: ELISA, plate coated with ROR1-His (1 ug/ml), bound antibody detected with HRP-conjugated anti-Fab polyclonal antibody, OD at 450 nm; upper table (the graph's legend names the third curve M8_N97G)
Method: as §1, §2

B1: M1 (PTM mutant of BA6 IgG) (antibody, V domains shown)
VH: EVQLLESGGGLVQPGGSLRLSCAASGFTFSNYDMSWVRQAPGKGLEWVSAIYHSGSSKYYADSVKGRFTISRDNSKNTLYLQMNSLRAEDTAVYYCARGGNGAWDTGFDYWGQGTLVTVSS
VL: QSVLTQPPSASGTPGQRVTISCSGSSSNIGSNDVSWYQQLPGTAPKLLIYYANNRPSGVPDRFSGSKSGTSASLAISGLRSEDEADYYCGAWDDSLSGYVFGGGTKLTVL
notes: IgG of BA6 with one mutation
B1 was tested, and the EC50 [1] was 0.326 nM.

B2: B5 (antibody, V domains shown)
VH: EVQLLESGGGLVQPGGSLRLSCAASGFTFSDYAMSWVRQAPGKGLEWVSSISSGSGSIYYADSVKGRFTISRDNSKNTLYLQMNSLRAEDTAVYYCAKNLIPLDYWGQGTLVTVSS
VL: QSVLTQPPSASGTPGQRVTISCSGSSSNIGSNAVSWYQQLPGTAPKLLIYYNSHRPSGVPDRFSGSKSGTSASLAISGLRSEDEADYYCGSWDASLNAYVFGGGTKLTVL
notes: also called anti-B7-H3 monospecific antibody B5; anti-B7-H3 antibody clone B5 (WO2019-226017 A1)
For B2, the “EC50 (read off the curve)” value [2] was ~1 nM.

B3: BA6 IgG(NA) (antibody, V domains shown)
VH: EVQLLESGGGLVQPGGSLRLSCAASGFTFSNYDMSWVRQAPGKGLEWVSAIYHSGSSKYYADSVKGRFTISRDNSKNTLYLQMNSLRAEDTAVYYCARGGNGAWDTGFDYWGQGTLVTVSS
VL: QSVLTQPPSASGTPGQRVTISCSGSSSNIGSNDVSWYQQLPGTAPKLLIYYDNNRPSGVPDRFSGSKSGTSASLAISGLRSEDEADYYCGAWDDSLSGYVFGGGTKLTVLG
Work on B3 yielded an EC50 [3] of 0.299 nM.

B4: M5 (PTM mutant of BA6 IgG) (antibody, V domains shown)
VH: EVQLLESGGGLVQPGGSLRLSCAASGFTFSNYDMSWVRQAPGKGLEWVSAIYHSGSSKYYADSVKGRFTISRDNSKNTLYLQMNSLRAEDTAVYYCARGGNYAWDTGFDYWGQGTLVTVSS
VL: QSVLTQPPSASGTPGQRVTISCSGSSSNIGSNDVSWYQQLPGTAPKLLIYYDNNRPSGVPDRFSGSKSGTSASLAISGLRSEDEADYYCGAWDDSLSGYVFGGGTKLTVL
notes: IgG of BA6 with one CDRH3 mutation
For B4, the EC50 [1] was 3.27 nM.

B5: M8 (PTM mutant of BA6 IgG) (antibody, V domains shown)
VH: EVQLLESGGGLVQPGGSLRLSCAASGFTFSNYDMSWVRQAPGKGLEWVSAIYHSGSSKYYADSVKGRFTISRDNSKNTLYLQMNSLRAEDTAVYYCARGGGGAWDTGFDYWGQGTLVTVSS
VL: QSVLTQPPSASGTPGQRVTISCSGSSSNIGSNDVSWYQQLPGTAPKLLIYYDNNRPSGVPDRFSGSKSGTSASLAISGLRSEDEADYYCGAWDDSLSGYVFGGGTKLTVL
notes: IgG of BA6 with one CDRH3 mutation; Kabat H97 (same column as M9)
In the case of B5, the EC50 [4] is reported as 7.56 nM.

B6: M2 (PTM mutant of BA6 IgG) (antibody, V domains shown)
VH: EVQLLESGGGLVQPGGSLRLSCAASGFTFSNYDMSWVRQAPGKGLEWVSAIYHSGSSKYYADSVKGRFTISRDNSKNTLYLQMNSLRAEDTAVYYCARGGNGAWDTGFDYWGQGTLVTVSS
VL: QSVLTQPPSASGTPGQRVTISCSGSSSNIGSNDVSWYQQLPGTAPKLLIYYTNNRPSGVPDRFSGSKSGTSASLAISGLRSEDEADYYCGAWDDSLSGYVFGGGTKLTVL
notes: IgG of BA6 with one mutation; Kabat L51
B6 showed an EC50 [1] of 10.2 nM.

B7: M4 (PTM mutant of BA6 IgG) (antibody, V domains shown)
VH: EVQLLESGGGLVQPGGSLRLSCAASGFTFSNYDMSWVRQAPGKGLEWVSAIYHSGSSKYYADSVKGRFTISRDNSKNTLYLQMNSLRAEDTAVYYCARGGNGAWDTGFDYWGQGTLVTVSS
VL: QSVLTQPPSASGTPGQRVTISCSGSSSNIGSNDVSWYQQLPGTAPKLLIYYSNNRPSGVPDRFSGSKSGTSASLAISGLRSEDEADYYCGAWDDSLSGYVFGGGTKLTVL
notes: as for B6
B7 was tested, and the EC50 [1] was 10.2 nM.

B8: M3 (PTM mutant of BA6 IgG) (antibody, V domains shown)
VH: EVQLLESGGGLVQPGGSLRLSCAASGFTFSNYDMSWVRQAPGKGLEWVSAIYHSGSSKYYADSVKGRFTISRDNSKNTLYLQMNSLRAEDTAVYYCARGGNGAWDTGFDYWGQGTLVTVSS
VL: QSVLTQPPSASGTPGQRVTISCSGSSSNIGSNDVSWYQQLPGTAPKLLIYYENNRPSGVPDRFSGSKSGTSASLAISGLRSEDEADYYCGAWDDSLSGYVFGGGTKLTVL
notes: as for B6
Work on B8 yielded an EC50 [1] of 0.333 nM, an EC50 [4] of 0.478 nM and an EC50 [5] of 0.189 nM. It also gave an EC50 [6] of 0.755 nM.

B9: M9 (PTM mutant of BA6 IgG) (antibody, V domains shown)
VH: EVQLLESGGGLVQPGGSLRLSCAASGFTFSNYDMSWVRQAPGKGLEWVSAIYHSGSSKYYADSVKGRFTISRDNSKNTLYLQMNSLRAEDTAVYYCARGGSGAWDTGFDYWGQGTLVTVSS
VL: QSVLTQPPSASGTPGQRVTISCSGSSSNIGSNDVSWYQQLPGTAPKLLIYYDNNRPSGVPDRFSGSKSGTSASLAISGLRSEDEADYYCGAWDDSLSGYVFGGGTKLTVL
notes: IgG of BA6 with one CDRH3 mutation; Kabat H97
With B9 the EC50 [7] was 1.08 nM.

B10: M6 (PTM mutant of BA6 IgG) (antibody, V domains shown)
VH: EVQLLESGGGLVQPGGSLRLSCAASGFTFSNYDMSWVRQAPGKGLEWVSAIYHSGSSKYYADSVKGRFTISRDNSKNTLYLQMNSLRAEDTAVYYCARGGNVAWDTGFDYWGQGTLVTVSS
VL: QSVLTQPPSASGTPGQRVTISCSGSSSNIGSNDVSWYQQLPGTAPKLLIYYDNNRPSGVPDRFSGSKSGTSASLAISGLRSEDEADYYCGAWDDSLSGYVFGGGTKLTVL
notes: as for B4
B10 was tested, and the EC50 [1] was 0.955 nM.

B11: M10 (PTM mutant of BA6 IgG) (antibody, V domains shown)
VH: EVQLLESGGGLVQPGGSLRLSCAASGFTFSNYDMSWVRQAPGKGLEWVSAIYHSGSSKYYADSVKGRFTISRDNSKNTLYLQMNSLRAEDTAVYYCARGGYGAWDTGFDYWGQGTLVTVSS
VL: QSVLTQPPSASGTPGQRVTISCSGSSSNIGSNDVSWYQQLPGTAPKLLIYYDNNRPSGVPDRFSGSKSGTSASLAISGLRSEDEADYYCGAWDDSLSGYVFGGGTKLTVL
notes: as for B5
With B11 the EC50 [4] was 2.76 nM.

B12: M7 (PTM mutant of BA6 IgG) (antibody, V domains shown)
VH: EVQLLESGGGLVQPGGSLRLSCAASGFTFSNYDMSWVRQAPGKGLEWVSAIYHSGSSKYYADSVKGRFTISRDNSKNTLYLQMNSLRAEDTAVYYCARGGNRAWDTGFDYWGQGTLVTVSS
VL: QSVLTQPPSASGTPGQRVTISCSGSSSNIGSNDVSWYQQLPGTAPKLLIYYDNNRPSGVPDRFSGSKSGTSASLAISGLRSEDEADYYCGAWDDSLSGYVFGGGTKLTVL
notes: as for B4
Binder B12 has an EC50 [3] of 12.5 nM.
